Test results as given in US11260115B1, “Peptides and combination of peptides for use in immunotherapy against CLL and other cancers” (immatics biotechnologies GmbH, priority 2015, dated 2022).

Assays:
HLA-A*02:01 = HLA-A*02:01 (Homo sapiens, UniProt P04439, D140Y/D185E/D98H/E176V/E277Q/G131W/G231S/I119V/I121R/I166T/I218V/L300P/L318F/N151K/N90K/P208A/P217A/Q86G/Q94H/R138H/R169H/T345S); assay: MHC binding assay (UV-ligand exchange, β2m ELISA, peptide exchange yield); details: binding to HLA-A*02:01
Method in brief: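 Peptide-HLA-A*02:01 complexes formed by UV-mediated exchange of a photocleavable ligand; exchange yield measured by streptavidin-capture ELISA detecting β2m with HRP anti-β2m, TMB read at 450 nm. Refolded monomer standards 15-500 ng/ml; samples diluted 100-fold.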

CD8+ T cells = assay: In vitro immunogenicity: T-cell priming with aAPCs loaded with peptide/MHC and anti-CD28, pMHC multimer readout; format: cell-based, human; details: HLA-A*02 restricted peptides, percentage of positive wells among evaluable
Procedure: FIGS. 3A-3F describe simulation graphs of various peptides of the present disclosure. […] CD8+ T cells were primed using artificial APCs coated with anti-CD28 mAb and HLA-A*02 in complex with SeqID No 1 peptide (FIG. 3C, left panel), SeqID No 5 peptide (FIG. 3D left panel), SeqID No 32 peptide (FIG. 3E, left panel) and SeqID No 220 peptide (FIG. 3F, left panel), respectively. After three cycles of stimulation, the detection of peptide-reactive cells was performed by 2D multimer staining with A*02/SeqID No 1 (FIG. 3C), A*02/SeqID No 5 (D), A*02/SeqID No 32 (FIG. 3E) or A*02/SeqID No 220 (FIG. 3F). Right panels (FIGS. 3C, 3D, 3E and 3F) show control staining of cells stimulated with irrelevant A*02/peptide complexes. Viable singlet cells were gated for CD8+ lymphocytes. Boolean gates helped excluding false-positive events detected with multimers specific for different peptides.
In order to obtain information regarding the immunogenicity of the TUMAPs of the present invention, the inventors performed investigations using an in vitro T-cell priming assay based on repeated stimulations of CD8+ T cells with artificial antigen presenting cells (aAPCs) loaded with peptide/MHC complexes and anti-CD28 antibody.
In order to perform in vitro stimulations by artificial antigen presenting cells loaded with peptide-MHC complex (pMHC) and anti-CD28 antibody, the inventors first isolated CD8+ T cells from fresh HLA-A*02 leukapheresis products via positive selection using CD8 microbeads (Miltenyi Biotec, Bergisch-Gladbach, Germany) of healthy donors obtained from the University clinics Mannheim, Germany, after informed consent.
PBMCs and isolated CD8+ lymphocytes were incubated in T-cell medium (TCM) until use consisting of RPMI-Glutamax (Invitrogen, Karlsruhe, Germany) supplemented with 10% heat inactivated human AB serum (PAN-Biotech, Aidenbach, Germany), 100 U/ml Penicillin/100 μg/ml Streptomycin (Cambrex, Cologne, Germany), 1 mM sodium pyruvate (CC Pro, Oberdorla, Germany), 20 μg/ml Gentamycin (Cambrex). 2.5 ng/ml IL-7 (PromoCell, Heidelberg, Germany) and 10 U/ml IL-2 (Novartis Pharma, Nümberg, Germany) were also added to the TCM at this step.
Generation of pMHC/anti-CD28 coated beads, T-cell stimulations and readout was performed in a highly defined in vitro system using four different pMHC molecules per stimulation condition and 8 different pMHC molecules per readout condition.
The purified co-stimulatory mouse IgG2a anti human CD28 Ab 9.3 (Jung et al., 1987) was chemically biotinylated using Sulfo-N-hydroxysuccinimidobiotin as recommended by the manufacturer (Perbio, Bonn, Germany). Beads used were 5.6 μm diameter streptavidin coated polystyrene particles (Bangs Laboratories, Illinois, USA).
800.000 beads/200 μl were coated in 96-well plates in the presence of 4×12.5 ng different biotin-pMHC, washed and 600 ng biotin anti-CD28 were added subsequently in a volume of 200 μl. Stimulations were initiated in 96-well plates by co-incubating 1×10^6 CD8+ T cells with 2×10^6 washed coated beads in 200 μl TCM supplemented with 5 ng/ml IL-12 (PromoCell) for 3 days at 37° C. Half of the medium was then exchanged by fresh TCM supplemented with 80 U/ml IL-2 and incubating was continued for 4 days at 37° C. This stimulation cycle was performed for a total of three times. For the pMHC multimer readout using 8 different pMHC molecules per condition, a two-dimensional combinatorial coding approach was used as previously described (Andersen et al., 2012) with minor modifications encompassing coupling to 5 different fluorochromes. Finally, multimeric analyses were performed by staining the cells with Live/dead near IR dye (Invitrogen, Karlsruhe, Germany), CD8-FITC antibody clone SK1 (BD, Heidelberg, Germany) and fluorescent pMHC multimers. For analysis, a BD LSRII SORP cytometer equipped with appropriate lasers and filters was used.

| Peptide Exchange (MHC class I binding score, peptide exchange yield) (HLA-A*02:01) | Substance | Wells positive [%] (CD8+ T cells) |
| --- | --- | --- |
| “+++” (>50 = +++) | 2 (ALHRPDVYL; listed as Homo sapiens) [compound 2] | “+” (<20% = +) |
| “+++” (>50 = +++) | 17 (ALTKTNLQL; listed as Homo sapiens) [compound 17] | “+” (<20% = +) |
| “+++” (>50 = +++) | 26 (AVLLVLPLV; listed as Homo sapiens) [compound 26] | “+” (<20% = +) |
| “++++” (>75% = ++++) | 32 (FIDKFTPPV; listed as Homo sapiens) [compound 32] | “++++” (>=70% = ++++) |
| “+++” (>50 = +++) | 54 (FLYPFPLALF; listed as Homo sapiens) [compound 54] | “+” (<20% = +) |
| “++++” (>75% = ++++) | 57 (GLSEISLRL; listed as Homo sapiens) [compound 57] | “+” (<20% = +) |
| “+++” (>50 = +++) | 69 (GLHQREIFL; listed as Homo sapiens) [compound 69] | “+” (<20% = +) |
| “+++” (>50 = +++) | 81 (WLVGQEFEL; listed as Homo sapiens) [compound 81] | “+” (<20% = +) |
| “+++” (>50 = +++) | 86 (HLYPGAVTI; listed as Homo sapiens) [compound 86] | “+” (<20% = +) |
| “+++” (>50 = +++) | 96 (ILIDKTSFV; listed as Homo sapiens) [compound 96] | “+” (<20% = +) |
| “++++” (>75% = ++++) | 101 (ILVVIEPLL; listed as Homo sapiens) [compound 101] | “+” (<20% = +) |
| “++” (>20% = ++) | 102 (IQDRAVPSL; listed as Homo sapiens) [compound 102] | “+” (<20% = +) |
| “+++” (>50 = +++) | 112 (KTLDVDATYEI; listed as Homo sapiens) [compound 112] | “+” (<20% = +) |
| “+++” (>50 = +++) | 114 (LIPEGPPQV; listed as Homo sapiens) [compound 114] | “+” (<20% = +) |
| “++++” (>75% = ++++) | 154 (SLLAELHVLTV; listed as Homo sapiens) [compound 154] | “+” (<20% = +) |
| “+++” (>50 = +++) | 192 (YIQEYLTLL; listed as Homo sapiens) [compound 192] | “+” (<20% = +) |
| “++++” (>75% = ++++) | 197 (YLQEVPILTL; listed as Homo sapiens) [compound 197] | “+” (<20% = +) |
| “++++” (>75% = ++++) | 200 (YMFEEVPIVI; listed as Homo sapiens) [compound 200] | “+” (<20% = +) |
| “++++” (>75% = ++++) | 201 (YQLELHGIEL; listed as Homo sapiens) [compound 201] | “+” (<20% = +) |
| “+++” (>50 = +++) | 240 (ILARDILEI; listed as Homo sapiens) [compound 240] | “+” (<20% = +) |
| “+++” (>50 = +++) | 281 (NLLDDRGMTAL; listed as Homo sapiens) [compound 281] | “+” (<20% = +) |
| “+++” (>50 = +++) | 307 (LLLTKPTEA; listed as Homo sapiens) [compound 307] | “+” (<20% = +) |
| “++++” (>75% = ++++) | 320 (TIAPVTVAV; listed as Homo sapiens) [compound 320] | “+” (<20% = +) |
| “+++” (>50 = +++) | 322 (SLASIHVPL; listed as Homo sapiens) [compound 322] | “+” (<20% = +) |
| “++++” (>75% = ++++) | 323 (SLDLFNCEV; listed as Homo sapiens) [compound 323] | “+” (<20% = +) |
| “+++” (>50 = +++) | 332 (VMIQHVENL; listed as Homo sapiens) [compound 332] | “+” (<20% = +) |
| “+++” (>50 = +++) | 380 (YLDRKLLTL; listed as Homo sapiens) [compound 380] | “++++” (>=70% = ++++) |
